From the supplement of paper PMC5998384 come the findings set out here.

Data set [1] concerns HeLa Kyoto. The data set is described as follows: melting temperature (median over replicates), in situ; higher = more thermally stable.
Data set [2] relates to HeLa Kyoto. The experiment in a line: solubility change mitosis vs G1/S (difference of NP-40 vs SDS log2 ratios) (log2 ratio difference); higher = more soluble in mitosis.
Data set [3] concerns HeLa Kyoto. The data set is described as follows: thermal stability score vs G1/S (z-score of summed log2 fold changes over temperatures); higher = more thermally stable than in G1/S.
Data set [4] has as its system HeLa Kyoto. The data set is described as follows: solubility in G1/S (NP-40 vs SDS abundance) (log2 ratio); higher = more soluble. The following applies: cell cycle stage: G1/S.
Setting [5] is: cell cycle stage: early G1 (4.5 h after nocodazole release).
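For melting temperature (median over replicates), in situ in this document: HeLa Kyoto cells synchronized by double thymidine or nocodazole block, proteins quantified by TMT10plex mass spectrometry, three independent biological replicates.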
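For solubility change mitosis vs G1/S (difference of NP-40 vs SDS log2 ratios) in this document: synchronized HeLa Kyoto cells (double thymidine block for G1/S, nocodazole release for mitosis), protein amounts in NP-40 versus SDS lysates quantified by mass spectrometry, three biological replicates.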
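For solubility in G1/S (NP-40 vs SDS abundance) in this document: HeLa Kyoto cells arrested at G1/S by double thymidine block, proteins quantified by TMT10plex mass spectrometry in mild NP-40 versus SDS extracts, three biological replicates.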
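For thermal stability score vs G1/S (z-score of summed log2 fold changes over temperatures) in this document: synchronized HeLa Kyoto cells, proteins quantified by TMT10plex mass spectrometry, three biological replicates, mitosis taken 0.5 h after nocodazole release, G1/S directly after double thymidine block.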

With “MTERRRDELSEEINNLREKVMKQSEENNNLQSQVQKLTEENTTLREQVEPTPEDEDDDIELRGAAAAAAPPPPIEEECPEDLPEKFDGNPDMLAPFMAQCQIFMEKSTRDFSVDRVRVCFVTSMMTGRAARWASAKLERSHYLMHNYPAFMMEMKHVFEDPQRREVAKRKIRRLRQGMGSVIDYSNAFQMIAQDLDWNEPALIDQYHEGLSDHIQEELSHLEVAKSLSALIGQCIHIERRLARAAAARKPRSPPRALVLPHIASHHQVDPTEPVGGARMRLTQEEKERRRKLNLCLYCGTGGHYADNCPAKASKSSPAGKLPGPAVEGPSATGPEIIRSPQDDASSPHLQVMLQIHLPGRHTLFVRAMIDSGASGNFIDHEYVAQNGIPLRIKDWPILVEAIDGRPIASGPVVHETHDLIVDLGDHREVLSFDVTQSPFFPVVLGVRWLSTHDPNITWSTRSIVFDSEYCRYHCRMYSPIPPSLPPPAPQPPLYYPVDGYRVYQPVRYYYVQNVYTPVDEHVYPDHRLVDPHIEMIPGAHSIPSGHVYSLSEPEMAALRDFVARNVKDGLITPTIAPNGAQVLQVKRGWKLQVSYDCRAPNNFTIQNQYPRLSIPNLEDQAHLATYTEFVPQIPGYQTYPTYAAYPTYPVGFAWYPVGRDGQGRSLYVPVMITWNPHWYRQPPVPQYPPPQPPPPPPPPPPPPSYSTL [PEG10]”, the values for the melting temperature in data set [1] (cell cycle stage: G1/S) and in data set [1] (cell cycle stage: mitosis) were 49.4 °C and 49.8 °C, respectively. In addition, the “solubility change mitosis (log2)” value in data set [2] was -0.00752. In addition, the thermal stability score in data set [3] (setting [5]) was found to be 0.275; in data set [3] (cell cycle stage: mitosis), 0.54. Also, in data set [4], the “solubility in G1/S (log2)” value was determined as 0.144.

Consider “MTFQASHRSAWGKSRKKNWQYEGPTQKLFLKRNNVSAPDGPSDPSISVSSEQSGAQQPPALQVERIVDKRKNKKGKTEYLVRWKGYDSEDDTWEPEQHLVNCEEYIHDFNRRHTEKQKESTLTRTNRTSPNNARKQISRSTNSNFSKTSPKALVIGKDHESKNSQLFAASQKFRKNTAPSLSSRKNMDLAKSGIKILVPKSPVKSRTAVDGFQSESPEKLDPVEQGQEDTVAPEVAAEKPVGALLGPGAERARMGSRPRIHPLVPQVPGPVTAAMATGLAVNGKGTSPFMDALTANGTTNIQTSVTGVTASKRKFIDDRRDQPFDKRLRFSVRQTESAYRYRDIVVRKQDGFTHILLSTKSSENNSLNPEVMREVQSALSTAAADDSKLVLLSAVGSVFCCGLDFIYFIRRLTDDRKRESTKMAEAIRNFVNTFIQFKKPIIVAVNGPAIGLGASILPLCDVVWANEKAWFQTPYTTFGQSPDGCSTVMFPKIMGGASANEMLLSGRKLTAQEACGKGLVSQVFWPGTFTQEVMVRIKELASCNPVVLEESKALVRCNMKMELEQANERECEVLKKIWGSAQGMDSMLKYLQRKIDEF [CDYL]”, for which the values for the melting temperature in data set [1] (cell cycle stage: G1/S) and in data set [1] (cell cycle stage: mitosis) were 51.4 °C and 51 °C, respectively. Further, the “solubility change mitosis (log2)” value in data set [2] amounted to 0.533. The thermal stability score in data set [3] (setting [5]) is 2.51; in data set [3] (cell cycle stage: mitosis) it was 0.875. In addition, the “solubility in G1/S (log2)” value in data set [4] was -0.609.

In the case of “MTHEEHHAAKTLGIGKAIAVLTSGGDAQGMNAAVRAVVRVGIFTGARVFFVHEGYQGLVDGGDHIKEATWESVSMMLQLGGTVIGSARCKDFREREGRLRAAYNLVKRGITNLCVIGGDGSLTGADTFRSEWSDLLSDLQKAGKITDEEATKSSYLNIVGLVGSIDNDFCGTDMTIGTDSALHRIMEIVDAITTTAQSHQRTFVLEVMGRHCGYLALVTSLSCGADWVFIPECPPDDDWEEHLCRRLSETRTRGSRLNIIIVAEGAIDKNGKPITSEDIKNLVVKRLGYDTRVTVLGHVQRGGTPSAFDRILGSRMGVEAVMALLEGTPDTPACVVSLSGNQAVRLPLMECVQVTKDVTKAMDEKKFDEALKLRGRSFMNNWEVYKLLAHVRPPVSKSGSHTVAVMNVGAPAAGMNAAVRSTVRIGLIQGNRVLVVHDGFEGLAKGQIEEAGWSYVGGWTGQGGSKLGTKRTLPKKSFEQISANITKFNIQGLVIIGGFEAYTGGLELMEGRKQFDELCIPFVVIPATVSNNVPGSDFSVGADTALNTICTTCDRIKQSAAGTKRRVFIIETMGGYCGYLATMAGLAAGADAAYIFEEPFTIRDLQANVEHLVQKMKTTVKRGLVLRNEKCNENYTTDFIFNLYSEEGKGIFDSRKNVLGHMQQGGSPTPFDRNFATKMGAKAMNWMSGKIKESYRNGRIFANTPDSGCVLGMRKRALVFQPVAELKDQTDFEHRIPKEQWWLKLRPILKILAKYEIDLDTSDHAHLEHITRKRSGEAAV [PFKM]”, the melting temperature was found to be 59.6 °C in data set [1] (cell cycle stage: G1/S) and 59.7 °C in data set [1] (cell cycle stage: mitosis). The “solubility change mitosis (log2)” value in data set [2] is -0.181. Also, the thermal stability score was -1.59 in data set [3] (setting [5]) and -1.13 in data set [3] (cell cycle stage: mitosis). In addition, the “solubility in G1/S (log2)” value in data set [4] worked out at 0.0079.

Regarding “MTIHQFLLLFLFWVCLPHFCSPEIMFRRTPVPQQRILSSRVPRSDGKILHRQKRGWMWNQFFLLEEYTGSDYQYVGKLHSDQDKGDGSLKYILSGDGAGTLFIIDEKTGDIHATRRIDREEKAFYTLRAQAINRRTLRPVEPESEFVIKIHDINDNEPTFPEEIYTASVPEMSVVGTSVVQVTATDADDPSYGNSARVIYSILQGQPYFSVEPETGIIRTALPNMNRENREQYQVVIQAKDMGGQMGGLSGTTTVNITLTDVNDNPPRFPQNTIHLRVLESSPVGTAIGSVKATDADTGKNAEVEYRIIDGDGTDMFDIVTEKDTQEGIITVKKPLDYESRRLYTLKVEAENTHVDPRFYYLGPFKDTTIVKISIEDVDEPPVFSRSSYLFEVHEDIEVGTIIGTVMARDPDSISSPIRFSLDRHTDLDRIFNIHSGNGSLYTSKPLDRELSQWHNLTVIAAEINNPKETTRVAVFVRILDVNDNAPQFAVFYDTFVCENARPGQLIQTISAVDKDDPLGGQKFFFSLAAVNPNFTVQDNEDNTARILTRKNGFNRHEISTYLLPVVISDNDYPIQSSTGTLTIRVCACDSQGNMQSCSAEALLLPAGLSTGALIAILLCIIILLVIVVLFAALKRQRKKEPLILSKEDIRDNIVSYNDEGGGEEDTQAFDIGTLRNPAAIEEKKLRRDIIPETLFIPRRTPTAPDNTDVRDFINERLKEHDLDPTAPPYDSLATYAYEGNDSIAESLSSLESGTTEGDQNYDYLREWGPRFNKLAEMYGGGESDKDS [CDH10]”, the results for the melting temperature in data set [1] (cell cycle stage: G1/S) and in data set [1] (cell cycle stage: mitosis) were 55.5 °C and 52.5 °C, respectively. Also, the “solubility change mitosis (log2)” value in data set [2] was -0.163. The thermal stability score in data set [3] (setting [5]) was -0.401; in data set [3] (cell cycle stage: mitosis), -1.3. In data set [4], the “solubility in G1/S (log2)” value is 0.0681.
